Assays:
[1] = biological target: HLA-A*02:01_… (HLA-PEPTIDE target G8), soluble (human, enzymatically biotinylated (BirA) for screening and BLI); experiment: BLI (Octet), biotinylated pHLA on streptavidin sensor, Fab in solution, 1:1 model
[2] = biological target: HLA-A*01:01_… (HLA-PEPTIDE target G10), soluble (human, enzymatically biotinylated (BirA)); experiment: as above

| Binder | Kd [1] [nM] | koff [1] [s⁻¹] | kon [1] [M⁻¹ s⁻¹] | Kd [2] [nM] | koff [2] [s⁻¹] | kon [2] [M⁻¹ s⁻¹] |
| --- | --- | --- | --- | --- | --- | --- |
| Fab clone R3G8-P2C10 (Fab, V domains shown, Fab made in HEK293) VH: QVQLVQSGAEVKKPGASVKVSCKASGYTFTSYYMHWVRQAPGQGLEWMGWINPYSGGTNYAQKFQGRVTMTRDTSTSTVYMELSSLRSEDTAVYYCAKGGIYYGSGSYPSWGQGTLVTVSS VL: DIQMTQSPSSLSASVGDRVTITCRASQDVSTWLAWYQQKPGKAPKLLIYAASSLQSGVPSRFSGSGSGTDFTLTISSLQPEDFATYYCQQSHSTPQTFGQGTKVEIK | 17.7 | 0.0013 | 75000 |  |  |  |
| Fab clone G8-P1C11 (Fab, V domains shown, Fab made in HEK293; also called R3G8-P1C11) VH: QVQLVQSGAEVKKPGASVKVSCKASGGTLSSYPINWVRQAPGQGLEWMGWISTYSGHADYAQKLQGRVTMTRDTSTSTVYMELSSLRSEDTAVYYCARSYDYGDYLNFDYWGQGTLVTVSS VL: DIQMTQSPSSLSASVGDRVTITCQASQDISNYLNWYQQKPGKAPKLLIYAASSLQSGVPSRFSGSGSGTDFTLTISSLQPEDFATYYCQQSYSIPPTFGGGTKVDIK | 178 | 0.0338 | 190000 |  |  |  |
| Fab clone R3G8-P2E04 (Fab, V domains shown, Fab made in HEK293) VH: QVQLVQSGAEVKKPGSSVKVSCKASGGTFSSYGVSWVRQAPGQGLEWMGWISPYSGNTDYAQKFQGRVTITADESTSTAYMELSSLRSEDTAVYYCARGLYYMDVWGKGTTVTVSS VL: DIQMTQSPSSLSASVGDRVTITCRASQSISSWLAWYQQKPGKAPKLLIYDASNLETGVPSRFSGSGSGTDFTLTISSLQPEDFATYYCQQSYSTPLTFGGGTKLEIK | 286 | 0.0789 | 545000 |  |  |  |
| Fab clone R3G10-P1B07 (Fab, V domains shown, Fab made in HEK293) VH: QVQLVQSGAEVKKPGASVKVSCKASGYTFTSYYMHWVRQAPGQGLEWMGIIHPGGGTTSYAQKFQGRVTMTRDTSTSTVYMELSSLRSEDTAVYYCARDKVYGDGFDPWGQGTLVTVSS VL: DIQMTQSPSSLSASVGDRVTITCRASQSISRWLAWYQQKPGKAPKLLIFDASRLQSGVPSRFSGSGSGTDFTLTISSLQPEDFATYYCQQAEAFPYTFGQGTKVEIK |  |  |  | 37.5 | 0.00615 | 165000 |
| Fab clone R3G10-P4E07 (Fab, V domains shown, Fab made in HEK293) VH: QVQLVQSGAEVKKPGSSVKVSCKASGYTFTGYYMHWVRQAPGQGLEWMGRISPSDGSTTYAPKFQGRVTITADESTSTAYMELSSLRSEDTAVYYCARDMGDAFDIWGQGTTVTVSS VL: not shown |  |  |  | 428 | 0.111 | 477000 |

Reference: patent US20210061914A1 (published 2021)
